Numbering of substitutions follows the chain as printed. Like-named read-outs stand apart in the source and are kept apart here. One block for each binder: values may come before it.
Key:
[1] = target: huCD47-D1-his (recombinant human CD47 extracellular region D1 with C-terminal His tag) (human (homo sapiens)) (UniProt Q08722); assay: SPR BIAcore, against hS2C3 as reference
[2] = target: hCD47 mutant E35A (human (homo sapiens)) (UniProt Q08722); assay: SPR BIAcore, against natural hCD47 as reference
[3] = target: hCD47 mutant Q1A (human (homo sapiens)) (UniProt Q08722); assay: SPR BIAcore, against natural hCD47 as reference
[4] = target: huCD47-D1-his (recombinant human CD47 extracellular region D1 with C-terminal His tag) (human (homo sapiens)) (UniProt Q08722); assay: SPR BIAcore, by the method of Example 3 (antibody captured, huCD47-D1-his analyte)
[5] = target: hCD47-mFc (human CD47 extracellular region D1 fused to mouse IgG2a Fc) (human (homo sapiens)); assay: competition ELISA by the method of Example 3 (hCD47-mFc coated, hCD172a-D1M1-His as competitor)
[6] = target: hCD47-mFc (human CD47 extracellular region D1 fused to mouse IgG2a Fc) (human (homo sapiens)); assay: as above; remark: listed apart in the source

- fold improvement of affinity over hS2C3 [1]: 5 fold
- fold increase of affinity against natural hCD47 [2]: 4 fold
- fold decrease of affinity against natural hCD47 [3]: 100 fold
- Kd [4]: 2.32 nM
- koff [4]: 0.00193 s⁻¹
- kon [4]: 833000 M⁻¹ s⁻¹
- IC50 [5]: 4.25 nM
- IC50 [6]: < 5 nM
B1: H10C7+L26A6 (affinity-matured variant of hS2C3) (antibody, part only; not given: constant regions, V domains shown, part only)
VH: QVQLVQSGAEVKKPGASVKVSCKASGYTFTDYYMHWVRQAPGQRLEWMGWIYPGSGNTRYSQKFKDRVTMTRDTSTSTVYMELSSLRSEDTAVYYCARREEDYFDYWGQGTLVTVSS

- Kd [4]: 1.83 nM
- koff [4]: 0.0017 s⁻¹
- kon [4]: 930000 M⁻¹ s⁻¹
- IC50 [5]: 3.52 nM
- IC50 [6]: < 5 nM
B2: H11E5+L26A6 (affinity-matured variant of hS2C3) (antibody, part only; not given: constant regions, V domains shown, part only)
VH: B1 VH with G54S, R59K, S61A
